We go through one substance from article PMC6093632.

For the assay, the target named is full-length human TRPV6 (transient receptor potential vanilloid subfamily member 6) (human). The assay can be described thus: cryo-EM structure.
full-length human TRPV6 (transient receptor potential vanilloid subfamily member 6) (human), sequence (Q9H1D0 whole entry): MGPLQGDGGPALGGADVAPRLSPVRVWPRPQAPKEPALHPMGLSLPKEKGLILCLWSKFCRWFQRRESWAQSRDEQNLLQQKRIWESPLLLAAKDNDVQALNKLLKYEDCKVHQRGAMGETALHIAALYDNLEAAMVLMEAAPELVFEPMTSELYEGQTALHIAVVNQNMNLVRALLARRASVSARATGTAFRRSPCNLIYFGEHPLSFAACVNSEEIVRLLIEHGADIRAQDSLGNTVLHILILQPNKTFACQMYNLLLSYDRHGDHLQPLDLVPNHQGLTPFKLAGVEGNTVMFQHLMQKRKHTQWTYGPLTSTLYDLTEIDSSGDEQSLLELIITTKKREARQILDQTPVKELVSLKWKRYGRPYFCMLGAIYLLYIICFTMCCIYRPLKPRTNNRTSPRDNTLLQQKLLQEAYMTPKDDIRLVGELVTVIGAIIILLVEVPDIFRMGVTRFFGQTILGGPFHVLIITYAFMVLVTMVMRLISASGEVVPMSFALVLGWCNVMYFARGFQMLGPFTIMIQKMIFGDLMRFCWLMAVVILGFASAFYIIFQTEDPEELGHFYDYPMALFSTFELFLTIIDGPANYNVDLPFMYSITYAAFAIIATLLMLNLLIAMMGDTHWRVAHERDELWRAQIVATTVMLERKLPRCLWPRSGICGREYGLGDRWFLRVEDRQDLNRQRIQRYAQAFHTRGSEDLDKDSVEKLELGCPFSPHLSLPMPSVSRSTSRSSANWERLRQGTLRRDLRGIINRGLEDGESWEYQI

Take “human calmodulin (CaM), recombinant (from UniProt P0DP23 1-149) (natural protein)”: the stoichiometry N (CaM molecule per hTRPV6 tetramer) stood at 1.
